According to the supplement of paper PMC10724198:
± gives the standard deviation of the averaged measurements.

System: Saccharomyces cerevisiae
Assay: protein stability index of tFT-peptide fusion (C-terminal peptide) (PSI (0-1 scale)); higher = more stable (slower turnover)
Settings: genetic background: wild type; temperature: 30 C
Protocol: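 Multiplexed protein stability (MPS) profiling in S. cerevisiae. Random 12-aa peptides (tFT-X12 library) are fused to the C-terminus of a sfGFP-mCherry tandem fluorescent timer, after mCherry and a GGGS linker. Cells are FACS-sorted into 8 mCherry/sfGFP bins and deep-sequenced. The protein stability index (PSI) is the read-weighted bin average, scaled from 0 (unstable) to 1 (stable). Only peptides with >10 reads are reported; cells were grown at 30 °C in SC-His with glucose.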
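Note: PSI is a weighted mean of sequencing reads over stability bins, variants kept only with over 10 reads, mCherry proximal and sfGFP distal, peptide attached via GGGS linker.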

Row | Sequence | protein stability index
1 | VFVRSNSGACKN | 0.682 ± 0.027
2 | SLCTFSFLRFGF | 0.738 ± 0.015
3 | GCSLWCPDFCLC | 0.665 ± 0.0097
4 | KSGGWLWVGGGG | 0.748 ± 0.039
5 | NRDSALGPTWAP | 0.718 ± 0.034
6 | THPPATSPPPYP | 0.6631 ± 0.0057
7 | PTLLRRVPPVPL | 0.677 ± 0.087
8 | VYTNAVPLSSNA | 0.817 ± 0.1
9 | IAWGNEISHSLF | 0.72 ± 0.066
10 | SSKVFCRVAKRE | 0.724 ± 0.026
11 | SLSPWRLPIGGW | 0.708 ± 0.033
12 | VVGGVLRFLLLW | 0.599 ± 0.013
13 | SLSTAEAHGRRS | 0.72 ± 0.082
14 | FGKWSWGECEGS | 0.69 ± 0.032
15 | TIPSSSQVPIGG | 0.641 ± 0.021
16 | RTQKNMKKSYCG | 0.63 ± 0.0075
17 | PLPPPLPPPGPH | 0.731 ± 0.053
18 | RRPLLSTPAPCS | 0.755 ± 0.025
19 | LPAFHFHSPPTP | 0.688 ± 0.037
20 | DFSLQILALCYF | 0.558 ± 0.018
21 | GGGVEAIEVSQG | 0.678 ± 0.041
22 | PLPPPLPNPPPS | 0.667 ± 0.074
23 | YINFQKMRKKFD | 0.723 ± 0.04
24 | PHPLPSPSPPPH | 0.69228 ± 0.00045
25 | NETVIATLGKGA | 0.657 ± 0.037

Row | Sequence | protein stability index
26 | AACNGGPMNQTR | 0.7 ± 0.086
27 | PPSLPLPAPPPP | 0.66 ± 0.063
28 | VRGTGRQLNKSM | 0.662 ± 0.054
29 | DCLFQSKLNTYD | 0.676 ± 0.041
30 | LFHRAVVGRVRP | 0.634 ± 0.013
31 | GGESENEVGSRS | 0.644 ± 0.038
32 | SGSMHWTDPPGS | 0.6747 ± 0.0051
33 | PDRYPPPPGRRG | 0.704 ± 0.014
34 | KKKRIERKEKGE | 0.676 ± 0.059
35 | GGRAQVGGWWGR | 0.774 ± 0.031
36 | WVAADTDGEPKH | 0.6986 ± 0.0057
37 | WGQGTGFWGLFG | 0.681 ± 0.024
38 | DSSFPKSVSKQA | 0.679 ± 0.024
39 | RPPPPLPQAPPT | 0.679 ± 0.0082
40 | DRSTGVNKSFPS | 0.7 ± 0.074
41 | RAIGREGILHRA | 0.693 ± 0.094
42 | YERPIVAAVRSR | 0.724 ± 0.02
43 | WGPGGGGVSDGM | 0.768 ± 0.019
44 | CGRFCLQGEYIV | 0.705 ± 0.12
45 | AGLTGSREGWRG | 0.638 ± 0.041
46 | VRGVCLWGGVVG | 0.641 ± 0.099
47 | KGKKTKQKRAKK | 0.6521 ± 0.0064
48 | LLTAFQACPASN | 0.713 ± 0.04
49 | CWGGRSYVYNIG | 0.662 ± 0.016
50 | KKKKPKNKSKDK | 0.634 ± 0.095

Row | Sequence | protein stability index
51 | SPPGTCPTIRPS | 0.664 ± 0.014
52 | WLLSVYSVGTDV | 0.589 ± 0.2
53 | LRYGSDQMERFI | 0.717 ± 0.1
54 | HRASFRIGFRTF | 0.758 ± 0.033
55 | SLWVLPGPVVLG | 0.621 ± 0.039
56 | NNRLSEDVLCEY | 0.665 ± 0.078
57 | TYSILLRVNCFK | 0.601 ± 0.004
58 | DVLRLRSVFFCG | 0.631 ± 0.047
59 | WRYFLGKGRMSF | 0.742 ± 0.014
60 | PLGGLTLNIIEC | 0.701 ± 0.0089
61 | SPRLRSRQVALS | 0.556 ± 0.17
62 | STILSAEKTKLG | 0.707 ± 0.02
63 | SERYFFFQCGPH | 0.6802 ± 0.0033
64 | GEECGRERLMCF | 0.7291 ± 0.0055
65 | RLSSPTRINHPN | 0.71 ± 0.04
66 | SKKTSRSKVHTS | 0.685 ± 0.069
67 | ELWCLGVLGGDV | 0.708 ± 0.0089
68 | DSWGPGVSSRRW | 0.732 ± 0.044
69 | VGWAVNGSMVVG | 0.662 ± 0.021
70 | IKIKKKKKKKRD | 0.665 ± 0.012
71 | RLEDGCGVGAGR | 0.645 ± 0.015
72 | AGGGHCVGMGVG | 0.642 ± 0.037
73 | KWMKKIKTRRQI | 0.609 ± 0.018
74 | RIVQQATHVREH | 0.787 ± 0.011
75 | KSKGGGTEPNRR | 0.695 ± 0.009

Row | Sequence | protein stability index
76 | KSKKKKKNKTNR | 0.6792 ± 0.0022
77 | WSRPAGVRSSLA | 0.7039 ± 0.00079
78 | TVKSCGRTLFSW | 0.6874 ± 0.0051
79 | WLSLPLAHLFSP | 0.681 ± 0.047
80 | GGGARGDCLMGS | 0.6809 ± 0.0018
81 | FSLHPGTYLVVL | 0.5913 ± 0.0026
82 | FLAPPPDVGQLV | 0.692 ± 0.038
83 | RSFYDNVLRPFK | 0.776 ± 0.035
84 | GGGAGGGGVVVR | 0.643 ± 0.016
85 | REWRLVTCSDCL | 0.668 ± 0.023
86 | AYVSLRASLLSS | 0.633 ± 0.063
87 | KKSIVEARLSNM | 0.58 ± 0.075
88 | PRLPYPSLFPCT | 0.678 ± 0.056
89 | RRDRRVGEGEGV | 0.699 ± 0.059
90 | LFFLRSSSRGLW | 0.736 ± 0.055
91 | ILPPCVNIGSGV | 0.64 ± 0.043
92 | LLLTVMSSPSLL | 0.645 ± 0.027
93 | LNDYGLADLGII | 0.731 ± 0.0076
94 | QSPMTTGASERH | 0.623 ± 0.066
95 | LELTSDWRAYVY | 0.643 ± 0.052
96 | GLACWALLTCNR | 0.726 ± 0.015
97 | PVLYWHSYRLCR | 0.65 ± 0.008
98 | LTPFQGLHLPIP | 0.745 ± 0.037
